The target of data set [1] is Gαt. The data set can be described thus: BLI: Ric8A1–492 and its mutants binding to full-length Avi-tagged Gαt. The conditions noted are these: BLI steady state, source data. The procedure:
(§1) An Octet RED96 system and streptavidin (SA)-coated biosensors (FortéBio, Menlo Park, CA) were used to measure association and dissociation kinetics for Gα peptides or the full-length Avi-tagged Gαt in relation to Ric8A1–492, Ric8A1–452, and Ric8A1–426. To obtain the Avi-tagged Gαt, Gαt was cloned into modified pET21a vector with the N-terminal His6-tag followed by the Avi tag and TEV cleavage site[59]. The Avi-tagged I340Q/N343H mutant of Gαt was prepared by QuikChange protocol. BL21(DE3) cells for expression of the Avi-tagged Gαt were grown in 2TY media supplemented with biotin (10 mg/liter), induced at OD600 of 0.6 with 50 µM IPTG and further grown overnight at 16 °C. Binding studies were performed in 20 mM Tris, 150 mM KCl, 5% glycerol, 1 mM TCEP, 0.5 mg/ml BSA, pH 8.0. All steps were performed at 26 °C, with biosensors stirred into 0.2 ml of sample in each well at 1000 rpm, and at a data acquisition rate of 5.0 Hz. N-terminally biotinylated Gαt333–350, Gαs363–380, C1 peptide and C2 peptide were loaded onto SA sensors at a concentration of 0.05, 0.05, 0.005, and 0.01 mg/ml for 40–90 seconds. Data for association and dissociation phases of the assay were collected as shown in Fig. 1b and Supplementary Figs. 8, 11, 12, and 14. To correct for baseline drift and non-specific binding, reference sensors lacking bound Gα peptide were used in the BLI assays with Ric8A proteins at the highest concentrations. Kinetic data fitting was performed using FortéBio Data Analysis software 10.0. For each concentration of Ric8A1–492, dissociation rate constant (kd) values were calculated from the corresponding dissociation phases of the curves. These kd values were used to calculate the association rate constant (ka) values from the association phases for each concentration according to the equation1 ka=kobserved-kd∕Ric8A1-492 The average ka and kd were calculated as means of the individual ka and kd values for all curves. Equilibrium dissociation constant KD was calculated as mean kd/mean ka. Steady-state data fitting was performed using the GraphPad Prism 7 software with the equation for one site specific binding.

The subject of the next data set is Gαi. The data set can be described thus: GTPγS binding to Gαi (GDP/GTPγS exchange, GEF activity of Ric8A constructs). In kind it is biochemical. The conditions noted are these: for Rate of GDP/GTPγS exchange reaction on Gαi: same conditions. The method, then:
The rates of GTPγS binding to Gαi in the absence or presence of Ric8A1–492 (Ric8A1–452) were measured by following the increase in fluorescence of Gαi tryptophan. Gαi (1 µM) was mixed with GDP (1 µM) in a fluorescence cuvette, in 20 mM Tris-HCl (pH 8.0) buffer containing 150 mM NaCl, 5% glycerol, 1 mM TCEP and 10 mM MgCl2, and incubated for 2 min. The binding reaction was initiated by addition of Ric8A1–492 or Ric8A1–452 (1 µM each) and/or and GTPγs (10 µM). Fluorescence at 340 nm was monitored with the excitation set at 295 nm. Data were fit to an equation for one phase association using the GraphPad Prism 7.05 software.
Background: Binding of GTPγS marks nucleotide exchange on a G protein.

The target of the next data set is Gαt333–350. The data set can be described thus: BLI: Ric8A1–492 and its mutants binding to biotinylated Gαt333–350. The following applies: for Kd: BLI steady state, source data. The procedure:
as §1
On the technique in general: Biolayer interferometry detects binding as a change in optical thickness at a sensor tip.

The nature of data set [2]: DSF thermostability of Ric8A constructs and Ric8A1–492 mutants (protein alone). The following applies: DSF; for mean Tm / Tm (C ): protein alone, source data; for mean Tm: mean of replicates. In kind it is physicochemical, bovine. The method, then: Stabilities of Ric8A constructs with and without peptide ligands were assessed using differential scanning fluorimetry (DSF), in which an increase in fluorescence of the Sypro Orange dye is measured. Ric8A1–492, Ric8A1–452 and Ric8A1–426 in 20 mM Tris-HCl (pH 7.5) buffer containing 150 mM KCl, 5% glycerol, and 1 mM TCEP with and without peptide were used at a final concentration of 0.5 mg/ml and were supplemented with a 1000-fold dilution of Sypro Orange dye (Invitrogen). Temperature was increased at 1 °C/minute and fluorescence signals were recorded using real-time PCR (C1000 Touch thermal cycler, Bio Rad), with the cycler set to FRET mode and the excitation wavelength set at 450–490 nm and the emission wavelength at 560–580 nm.

The subject of data set [3] is Gαt. The data set can be described thus: SEC co-migration of Ric8A1–492 R75M mutant with full-length Gαt. The class given is binding. The procedure: Ric8A1–492/miniGαi complex was prepared by mixing Ric8A with miniGαi at a 1:1.5 molar ratio. The complex was purified by SEC using a HiLoad 16/600 Superdex 200 pg column equilibrated with 20 mM Tris-HCl (pH 8.0) buffer containing 150 mM KCl, 5% glycerol, and 1 mM TCEP. This procedure removed excess miniGαi, ensuring 1:1 stoichiometry of the complex. Ric8A1–492/Gαt complexes were purified by mixing Ric8A1–492 with Gαt (1:1.5 molar ratio), followed by SEC using Superdex 200 10/300 GL column (GE healthcare) to remove excess Gαt. […]
with Gαt. (A) Ric8A1-492 was mixed with Gαt and loaded onto a MW-calibrated Superdex 200 10/300 column. SEC profile - black curve. Blue curve and a gel in the inset with a blue outline represent SEC profile of Ric8A1-492 alone. Red curve and a gel in the inset with a red outline represent SEC profile of Gαt alone. (B) Peak fractions in A analyzed by SDS-PAGE. Peak 1 containing the Ric8A1-492/Gαt complex is not fully resolved from peak 2 corresponding to Ric8A1-492 alone. (C) The R75M mutant of Ric8A1-492 was mixed with Gαt and loaded onto a MW-calibrated Superdex 200 16/600 column. SEC profile - black curve. Blue line and a gel in inset represent SEC profile of R75M alone. Red curve – SEC profile of Gαt alone. (D) Peak fractions in C analyzed by SDS-PAGE. […]

Like-named read-outs stand apart in the source and are kept apart here.

B1: Ric8A1–492: bovine Ric8A construct truncated at the C-terminus (residues 1–492) (protein)
chain: MEPRAVADALETGEEDVVMEALRAYNRENSQSFTFDDAQQEDRKRLAKLLVSVLEQGLPPSRRVIWLQSIRILSRDRSCLDSFTSRRSLQALACYAGISASQGSVPEPLNMDVVLESLKCLCNLVLSSPVAQALAAEAGLVVRLAERVGLCRQSSFPHDVQFFDLRLLFLLTALRTDVRQQLFQELQGVRLLTRALELTLGMTEGERHPELLPPQETERAMEILKVLFNITFDSIKREVDEEDAALYRHLGTLLRHCVMLAAAGDRTEELHGHAVNLLGNLPVKCLDVLLTLEPHEGSLEFLGVNMDVIRVLLSFMEKRLHQTHRLKESVAPVLSVLTECARMHRPARKFLKAQVLPPLRDVRTRPEVGELLRNKLVRLMTHLDTDVKRVAAEFLFVLCSESVPRFIKYTGYGNAAGLLAARGLMAGGRPEGQYSEDEDTDTDEYKEAKASINPVTGRVEEKPPNPMEGMTEEQKEHEAMKLVNMFDKLSRH
modifications: left off: His6, N-terminal, state not stated
Take B1: the equilibrium dissociation constant (Kd) at Gαt [1] (experiment 1, read-out: KD (nM), Gαt) was determined as 22.6 nM; on Gαt [1] (experiment 2, read-out: KD (nM), Gαt), 27 nM; on Gαt [1] (experiment 3, read-out: KD (nM), Gαt), 23.1 nM; on Gαt [1] (mean of replicates, read-out: mean KD, Gαt), 24.2 nM; on Gαt333–350 (experiment 1, read-out: KD (uM), Gαt333-350), 0.27 µM; at Gαt333–350 (experiment 2, read-out: KD (uM), Gαt333-350) it was 0.33 µM. Besides, the Kd on Gαt333–350 (experiment 3, read-out: KD (uM), Gαt333-350) turned out to be 0.33 µM; at Gαt333–350 (experiment 4, read-out: KD (uM), Gαt333-350), 0.19 µM; at Gαt333–350 (mean of replicates, read-out: Mean KD, Gαt333-350), 0.28 µM; on Gαt333–350 (representative experiment, read-out: KD, steady-state curve of Figure 1c), 0.27 µM. In addition, the “Rate of GDP/GTPγS exchange reaction on Gαi, mean” value in the data set on Gαi (Gαi 1 µM, GDP 1 µM, Ric8A construct 1 µM, GTPγS 10 µM, 20 mM Tris-HCl pH 8.0, 150 mM NaCl, 5% glycerol, 1 mM TCEP, 10 mM MgCl2, tryptophan fluorescence ex 295 nm, em 340 nm, one phase association fit, mean) is reported as 0.3229. In addition, the “Rate of GDP/GTPγS exchange reaction on Gαi” value in the data set on Gαi (replicate 1) was 0.2658; in the data set on Gαi (replicate 2), 0.38. In addition, the Tm in data set [2] (Sypro Orange, protein alone 0.5 mg/ml, 20 mM Tris-HCl pH 7.5, 150 mM KCl, 5% glycerol, 1 mM TCEP, 1 °C/minute, mean ± SD (n = 3)) was found to be 46.8 ± 0.2 °C. In data set [2], the “mean Tm” value is recorded as 46.8 C. For the same molecule, the “Tm (C )” value in data set [2] (replicate 1) was 46.9 C; in data set [2] (replicate 2), 46.96 C; in data set [2] (replicate 3), 46.7 C.

B2: R75M: R75M mutant of Ric8A1–492 (protein, UniProt Q5E9J8 1-492, looked up, variant R75M)
chain: MEPRAVADALETGEEDVVMEALRAYNRENSQSFTFDDAQQEDRKRLAKLLVSVLEQGLPPSRRVIWLQSIRILSMDRSCLDSFTSRRSLQALACYAGISASQGSVPEPLNMDVVLESLKCLCNLVLSSPVAQALAAEAGLVVRLAERVGLCRQSSFPHDVQFFDLRLLFLLTALRTDVRQQLFQELQGVRLLTRALELTLGMTEGERHPELLPPQETERAMEILKVLFNITFDSIKREVDEEDAALYRHLGTLLRHCVMLAAAGDRTEELHGHAVNLLGNLPVKCLDVLLTLEPHEGSLEFLGVNMDVIRVLLSFMEKRLHQTHRLKESVAPVLSVLTECARMHRPARKFLKAQVLPPLRDVRTRPEVGELLRNKLVRLMTHLDTDVKRVAAEFLFVLCSESVPRFIKYTGYGNAAGLLAARGLMAGGRPEGQYSEDEDTDTDEYKEAKASINPVTGRVEEKPPNPMEGMTEEQKEHEAMKLVNMFDKLSRH
modifications: residues 1-492
On to B2, for which the “interaction with full-length Gαt (in words)” value in the data set with Gαt [3] was “disruption of the interaction”. The “binding to Gαt333–350 (in words)” value in the data set with Gαt333–350 (BLI) is given as “ablated the binding”. The “mean Tm” value in data set [2] stood at 45.9 C. In addition, the “Tm (C )” value in data set [2] (replicate 1) came to 45.86 C; in data set [2] (replicate 2), 45.81 C; in data set [2] (replicate 3), 45.88 C; in data set [2] (replicate 4) it was 45.96 C.

Broadly, the Kd is the constant that tells how readily two partners part at equilibrium. As a reminder, the Tm is the temperature at which the thermal transition is half complete.

For the origin of these results see publication PMC6625990, “Structural underpinnings of Ric8A function as a G-protein α-subunit chaperone and guanine-nucleotide exchange factor” (Nature Communications, 2019).
